# According to the nanobody polyreactivity screen of Harvey et al. (2022):
# Assay: yeast display, Sf9 membrane polyspecificity reagent, FACS + sequencing; frameworks hold sequencing errors
# Method in brief: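 Sorting gates, low and high (top ~1%), were placed on anti-HA fluorescence to track expression and on streptavidin fluorescence to track reagent binding. A clone's polyreactivity label is taken from the gate it came out of. The reagent was 10% biotinylated, detergent-solubilized Sf9 membrane, applied for 1 hour at 4 °C to galactose-induced yeast display cells.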
row,Sequence,polyreactivity (PSR sort gate)
1,QVQHVESGGGLVQAGGSLRLSCAASGIIFYDKTMGWYRQAPGKERELVASITWRGGSTYYADSVKGRFTISRDNAKNTVYLQMNSLKPEDTAVYYCNADSSDDYDYWGQGTQVTVSS,low polyreactivity
2,QVQLVESGGGLVQAGGSLRLSCAASGSTFYRNAMGWYRQAPGKERELVAAISRRSGTTYYADSVKGRFTISRDNAKNTVYLQMNSLKPEDTSVYYCATVRGGYDYWGQGTQVTVSS,high polyreactivity
3,QVQLVESGGGLVQAGGSLRLSCAASGRTFYHYAMGWYRQAPGKERELFAAISWTGGSTSSTYYADSVKGRFTISRDNAKNTVYLQMNSLKPEDTAVYYCAADFWWGHTWQDDYWGQGTQVTVSS,low polyreactivity
4,QVQLVESGGGLVQAGGSLRLSCAASGRILYYSVMGWYRPAPGKERELVAAISSGGDTNYADSVKGRFTISRDNAKNSVYLQMNSLKPEDTAVYYCARGVDGILWTSEYDYWGQGTQVTVSS,low polyreactivity
5,QVQLVESGGGLVQAGGSLRLSCAASGLTFYYYAMGWYRQAPGKEREFVAAISRSGGTTYYADSVKGRFTISRDNAKNTVYLQMISLKPEDTAVYYCNAQWWRYWPSQVIFDYWGQGTQVTVSS,high polyreactivity
6,QVQLVESGGCLVQAGGSLRLSCAASRRIYYYTMGWYRQPPGKERELGATITSSGSSTYYADSVKGRFTISRDNAMNTVYLQMNSLKPEDTAVYYCAAGDRRYQRRYYYWGQGTQVTVSS,high polyreactivity
7,QGQLVESGGGLVQAGGSLRLSCAASGFTFYYNAMGWYRQAPGQERELVAAISTRGGNTYYADSVKGRFTISRDNAKNTVYLQMNSLKPEDTAVYYCARKIRREGRYDYWGQGTQVTVSS,high polyreactivity
8,QVQLVESGGGLVQAGGTLRLSCAASGGTFVSRAMGWYRQAPGKERELVAAISFSGDSTYYADSVKGRFTISRDNAKNTVYLQMNSLKPEDTAVYYCRFYSYWSWLGREYDYWGQGTQVTVSS,low polyreactivity
9,QVQLVESGGGLVQAGGSLRLSCAASGRTFSRNAMGWYRQAPGKERELVATITSDGSTNYADSVKGRFTISRDNAKNTVYLQMNSLKPEDTSVYYCAADEASSRGYYDYDYWGQGTQVTVSS,low polyreactivity
10,QVQLVESGGGLVQAGGSLRLSCGASGFTFPYYAMGWYIQAPGKERELVAAITSSGGSTYYADSVKGRFTISRDNAKNTVYLQMNSLNPEDTAVYYCAVDAYYYKWYDYWGQGTQVTVSS,high polyreactivity
11,QVQLVESGGGLVQAGGSLRLSCAASGSIFSPYAMGWYRQAPGKERELVAAISRSGRTHYADSVKGRFTISRDNAKNTVYLQMNSLKPEDTAVYYCAAGVVYGYYYWGQGTQVTVSS,high polyreactivity
12,QVQLVDSGGGLVQAGGSLRLSCAASGSIFHVNAMGWYRQAPGKERELVAAIRSDASTNYADSVKGRFTISRDNAKNTVYLQMNILKPEDTAVYYCNTAQLVSDEFDYSGQGTQVTVSS,low polyreactivity
13,QFQLVESGGGLVHAGGSLRLICAASGRTFVYNAMGWYRQAPGKERDLVAAISFGGGNTYYADSVKGRFTISRDNAKNTVYLQMNCLKPEDTAVYYCAKAYIGYWGASCYYAYDYWGQGTQVTVSS,low polyreactivity
14,QVQLVESGGGLVQAGGSLRLSCAASGFTFGRYAMGWYRQAPGKERELVAAITRGSGGTYYADSVKGRFTISRDNAKNTVYLQMNSLKPEDTAVYYCATGSRSRGALRYAHFDYWGQGTQVTESS,high polyreactivity
15,QVQLVESGGGLVQAGGSLRLSCAASGSIFAYYALGWYRQAPGKERELVASIDWSGDLYVRDSVKGRFTISRDNAKNTVYFLMNSLKPEDTAVYYCAKDVSFQYGTGYDYWGQGNQVTVSS,low polyreactivity
16,QVQLVESGGGLVQAGGSLRLSCAASGRIFRYYAMGWYRQAPGKERELVADSTRGGGSTYYADSVKGRFTISRDNAKNTVYLQMNSLKPEDTAVYYCAKDGSGGLPVLYRYRYDYWGQGTQVTVSS,high polyreactivity
17,QVQLVESGGGLVQAGGSLRLSCAASGRIFGYYAMGSYRQAPGKERELVAAITRGGSTNYADSVKGRFTISRDNAKNTVYLQMNSLKPEDTAVYYCNARRYRPRSASYDYWGQGTQVTVSS,high polyreactivity
18,QVQLVESGGRLVQAGGSHRLSCAASGFIFYDYAMGWYIQAPGKERELVAVITRGGSTYYADSVKGRFTISRDNAKNTVYLLMNSLKPEDTAVYYCAAYWFTPGFTFDYWGQGTQVTVSS,low polyreactivity
19,QVQLVESGGGLVQAGGSHRLSCAASGRTFSTYSMGWYRQAPGKERELVAAISSGGGRTYYADSVKGRFTISRDIAKNTVYLQINSLKPEDTAVYDGAADRYFRSRRSYEYWGQGTQVTVSS,low polyreactivity
20,QVQLVESGGGLVQAGGSLRLSCAASGRTLRGNAMGWYRQAPGKERELVAGITSGGSTNYADSVKGRFTISRDNAKNTVYLQMNSLKPEDTAVYYCAAAYYLSFGRYYTNYDYWGQGTQVTVSS,high polyreactivity
21,QVQLVESGGGLVQAGGSLRLSCAASGRIFGAYAMGWYRQAPGKERELVAAIDIRGGNTYYADSVKGRFTISRDNAKNTVYLQMNSLKPEDTAVYYCAADTWYDAYNYWGQGTQVNVSS,low polyreactivity

row,Sequence,polyreactivity (PSR sort gate)
1,QVQLVESGGGLVQAGGSLRLSCAASGRTFVTNAMGWYRPAPGKERELVPAISSNGGSTYYADSVKGRFTISRDTAKNTVYLQMNSLKPEDTAVYYCNAEGQPLYWWDHGNYWGQGTQVTVSS,low polyreactivity
2,QVQLLESGGRLVQAGGSLRLSCAASGSTYNQYDMGWYRQAPGKERELVAAISTNGGRTYYADSVKGRFTISRDNAKNTVYLLMNSLKPEYTAVYYCNRAGRGRWSNMDHWGQGTQVTVSS,high polyreactivity
3,QVQLVESGGGLVQAGGSLRLSCAASGRTFQVNAMGWYREAPGKERELVAAISIRSGRTYYADSVKGRFTISRYNAKNTVYLQMNSLKPEDTAVYYCAAYRISVYGVGYWGQGTQVTVSS,high polyreactivity
4,QVQLVESGGGLVQAGGSLRLSCAASGFIYYGYAMGWYRQAPGKEMELVAAITSGGSTTYADSVKGRFTISRDNAKNTVYLQMNSLKPVDTAVYYGAASVCREVGWGQGTQVTVSS,high polyreactivity
5,QVQLVESGGGLVQAGGSLRLSCAASGRTFTGYAMGWYRQAPGKEREFVAAITQRGGSTYYADSVKGRFTISRDNEKNTVYLQMNSLKAEDTAVYYCAARRRYKMDYWGQGTQVTVSS,high polyreactivity
6,QVQLVESGGGLVQAGGSLRLSCAASGRIFSFYAMGWKRQAPGKERELVAAITWGDGSTYYADSVKGRFTISRDNAKNTVYLQMNSLKPEDTAVYYCNKTYIDTTVYDVIMDYWGQGTQVTVSS,low polyreactivity
7,QVQIVESGGGLVQAGGSLRVSCAASGSIFKIYAMGWYRQAPGKERELVASITGSGGSTYYADSVKGRFTISRDNAKNTVYLQMNSLKPEDTAVYYCAAAVLGSSTSEVDPDRPEYYYWGHGTQVTVSS,low polyreactivity
8,QVQLVESGGGLVQAGGSLRLSCAASGGTFWVNMGWYRQAPGKEREFVAAITWSAGSTYYADSVKGRFTISRDNAKNTVYLQMNSLKPEDTAVYYCAGGGGHYQEYLMEDYWGQGTQVTVSS,high polyreactivity
9,QVQLVESGGGLVQAGGSLRLSCAASGSTLYFYAMGWYRQAPGKERELVADITRSGGSTYYADSVKGRFTISRDNAKNTVYLQMNSLKPEDTAVYYCNADDWSTYWYGYPGYDYWGQGTQVTVSS,high polyreactivity
10,QVQLVESGGGLVQAGGSLRLSCAASGLIFKSYLMGSYRQAPGKERELVAGITGSGGTTYYADSVKGRFTISRDNAKNTVYLQMNSLKPEDTAVYYCAARSRSRPKYDYWGQGTQVTVSS,high polyreactivity
11,QVQLVESGGGLVQAGGSIRLTCAASGTIFPYYAKGWYRQAPGKERELVAAISDSGDSTYYADSVKGRFTISRDNAKNTVYLQMNSLKPEDTAVYYCAADQTSSYYDPWGDYWGQGTQVTVSS,low polyreactivity
12,QVQLVESGGGLVQAGGTLRLICAASGSIFGYYTMGWYRQASGKERELVAAITSGGSTNYADSVKGRFTISRDNAKNTVYLQMNSLKPEDTAVYYCATVSYYPWRYDYWGQGTQGTVSS,low polyreactivity
13,QVQLVESGGGIVQAGGSLRLSCAASGRTLGGYAMGWYRQAPGKERELVAAITRRGGSTYYADSVKGRFTISRDNAKNTVYLQMNSLKPEDTAVYYCAARWYARSLTRFNYWGQGTQVTVSS,high polyreactivity
14,QVQLVESGGGLFQAGGSLRLSCAASGRIVGLYAMGWYRPAPGKERELVAAISRGGSTNYADSVKGRFTISRDNAKNTVYLQMNSQKPEDPAVYYCNARYVKYYTYLYNYDYWGQGTQVTVSS,high polyreactivity
15,QVQLVESGGGLVQAGGSLRLSCAASGLTYSNAMGCYRQAPGKERELVAAISWRGGRTYYADSVKGRFTISRDNAKNTVYLQMNSLKPEDTAVYYCAKYAHGHKWYGYWGQGNQVTVSS,low polyreactivity
16,QVQLVESGGGLVQAGGSLRLSCAASGGTFSTNAMGWYRQAPGKERELVAAISLSGGRTYADSVKGRFTISRDNAKNTVYLQMNSLKPEDTAVYYCNADSAGITRARSELDYWGQGTQVTVSS,low polyreactivity
17,QVQLQECGGGLVQAGGRLRLSCAASGNIFDADIMGWYRQAPGKERELVASVTDGGSTNYADSVKGRFTISRDNAKNTVYLQMISLTPEDTAVYYCAAIVYPDILTYFDYDYDYFYWGQGTQVTVGS,low polyreactivity
18,QVQLVESGGGLVQAGGSLRLSCADSARTFNWNAMGWYRQAHGKERELVATISRRGGSTYYADSVKGRFTISRDNAKNTVYLQMNSLKPEDTAVYDCNTAGRYGYDYWGQGTQVTVSS,high polyreactivity
19,QVQLVESGGGIVQAGGSLRLSCAASGRLFYYYAMGWDRQAPGTERELVAVISRGVITYYADSVKGRFTISRDTAKNTVYLQMNSLKPEDTAVYYCAVSYPHYIYSYGYWGQGTQVTVSS,high polyreactivity
20,QVQLVESGGCLVQAGGSLRLSCAASGRIIDFYTLGWYRQAPGKERELVAGINGSGASTYYADSVKGRFTISRDNAKNTVYLQMNSLKPEDTAVYYCAKDPGYYYDYDYWGQGTQVTVSS,low polyreactivity
